In test [1] the target is biotinylated extracellular domain of the human GIP receptor (bioGIPR) (human) (UniProt P48546). As to the kind of experiment: SPR single cycle kinetics, bioGIPR captured on chip; category A: pKD >9.0.
Test [2] addresses human Gastric Inhibitory Peptide Receptor (human) (UniProt P48546). As to the kind of experiment: FACS competition with GIP-057 on CHO-K1-hGIPR cells; pIC50 category A: >8.0.
Test [3] addresses biotinylated extracellular domain of the human GIP receptor (bioGIPR) (human) (UniProt P48546). As to the kind of experiment: SPR single cycle kinetics, bioGIPR captured on chip; category A: t1/2 >15 min.

*1 amine or outer side, *2 acyl side, *3 side chain or, on linkers, in order; H or OH if unused. Bridges are numbered along the chain shown (N, C = ends). Where no end group is shown, it is not given here. Side-chain parts run from the residue outwards. [ ]: non-standard residue; d: D form. The star is where a group is joined. DOTA(Ga) = O=C1CN2CCN3CCN(CC(=O)*)CCN(CC2)CC(=O)[O][Ga]([O]1)[O]C(=O)C3; DOTA(In) = O=C1CN2CCN3CCN(CC(=O)*)CCN(CC2)CC(=O)[O][In]([O]1)[O]C(=O)C3; DOTA(Lu) = O=C1CN2CCN3CCN(CC(=O)*)CCN(CC2)CC(=O)[O][Lu]([O]1)[O]C(=O)C3; NH(1-deoxy-D-glucityl) = OC[C@@H](O)[C@@H](O)[C@H](O)[C@@H](O)CN*; dE(AGLU) = D-glutamic acid bearing 1-amino-1-deoxy-D-glucitol; Pro(trans-4-NH2) = O=C([C@@H]1C[C@@H](N[*:3])CN1[*:1])[*:2]; DOTA = O=C(O)CN1CCN(CC(=O)O)CCN(CC(=O)*)CCN(CC(=O)O)CC1; 2Lut = 2,6-lutidylidene bridge between two thiols; Trp(5-Br) = N[C@@H](Cc1c[nH]c2ccc(Br)cc12)C(=O)O; Trp(5-Cl) = N[C@@H](Cc1c[nH]c2ccc(Cl)cc12)C(=O)O; Pyridine(2,6-diCH2) = c1cc(C[*:1])nc(C[*:2])c1; APAc = 4-amino-1-carboxymethylpiperidine; Glutaryl = O=C(CCCC(=O)[*:2])[*:1]; AGLU = 1-amino-1-deoxy-D-glucitol; Hyp = O=C(O)[C@@H]1C[C@@H](O)CN1; Cysteamide = C(CS[*:3])N[*:1]; dGlu(AGLU) = not defined here; Suc = O=C(CCC(=O)[*:2])[*:1]; hSer = N[C@@H](CCO)C(=O)O; Api = NC1(C(=O)O)CCNCC1; Thp = NC1(C(=O)O)CCOCC1

biotinylated extracellular domain of the human GIP receptor (bioGIPR) (human), sequence (P48546 24-138 limits assumed): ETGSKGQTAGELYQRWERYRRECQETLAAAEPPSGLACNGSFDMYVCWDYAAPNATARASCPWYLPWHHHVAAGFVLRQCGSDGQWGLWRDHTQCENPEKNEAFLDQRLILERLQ
human Gastric Inhibitory Peptide Receptor (human), sequence (P48546 22-466 limits assumed): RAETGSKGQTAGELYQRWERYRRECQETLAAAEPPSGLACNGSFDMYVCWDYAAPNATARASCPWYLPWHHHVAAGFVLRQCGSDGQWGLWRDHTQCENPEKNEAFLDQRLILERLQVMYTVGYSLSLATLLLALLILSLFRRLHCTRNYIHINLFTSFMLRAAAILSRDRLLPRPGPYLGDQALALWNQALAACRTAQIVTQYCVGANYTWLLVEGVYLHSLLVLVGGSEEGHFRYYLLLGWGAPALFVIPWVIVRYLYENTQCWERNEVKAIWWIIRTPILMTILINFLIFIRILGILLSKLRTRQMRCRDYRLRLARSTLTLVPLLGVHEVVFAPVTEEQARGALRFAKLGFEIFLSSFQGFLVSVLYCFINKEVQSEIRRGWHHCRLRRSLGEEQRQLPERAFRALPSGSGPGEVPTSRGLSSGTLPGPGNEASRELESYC

B1: AGLU-Glutar-Asp-Trp-5Clw-Tap-Glu-leu-[Cys(2Lut)-Apc(InDOTA)-Leu-Ile-Cys]-APAc-glu(AGLU)-NH2 (peptide)
peptide: {AGLU-Glutaryl}-DW[Trp(5-Cl)][Pro(trans-4-NH2)]E[dL]C[Api](DOTA(In))LIC-{APAc-dE(AGLU)-NH2}
modifications: linker 7-11 via Pyridine(2,6-diCH2)
In turn, B1 returned a pKD in test [1] greater than 9 pkd. This molecule came in with a pIC50 in test [2] greater than 8 pic50. The same molecule showed a t1/2 in test [3] greater than 15 min.

B2: AGLU-Glutar-APAc-Asp-Trp-5Clw-Tap(AGLU-Glutar)-Glu-leu-[Cys(2Lut)-Apc(DOTA)-Leu-Ile-Cys]-APAc-glu(AGLU)-NH2 (peptide)
peptide: {AGLU-Glutaryl-APAc}-DW[Trp(5-Cl)][Pro(trans-4-NH2)]([Glutaryl-NH(1-deoxy-D-glucityl)])E[dL]C[Api](DOTA)LIC-{APAc-dE(AGLU)-NH2}
modifications: linker 7-11 via Pyridine(2,6-diCH2)
B2 showed a pKD in test [1] greater than 9 pkd. Also, the pIC50 in test [2] was greater than 8 pic50. In test [3], this molecule had a t1/2 greater than 15 min.

B3: AGLU-Glutar-Asp-Trp-5Clw-Hyp-Glu-leu-[Cys(2Lut)-Apc(InDOTA)-Leu-Ile-Cys]-APAc-glu(AGLU)-NH2 (peptide)
peptide: DWXXEXCXLIC
modifications: AGLU-Glutar; 5Clw; Hyp; D-leu; Apc(InDOTA); 2Lut bridge Cys-Cys; APAc; D-glu(AGLU); C-term NH2
Molecule B3 returned a pKD in test [1] greater than 9 pkd. The pIC50 in test [2] is greater than 8 pic50. Moreover, in test [3], the t1/2 is greater than 15 min.

B4: Ac-Hse-Trp-5Brw-Hyp-Glu-leu-[Cys(2Lut)-Thp-Leu-Ile-Cys]-NH2 (peptide)
peptide: Ac-[hSer]W[Trp(5-Br)][Hyp]E[dL]C[Thp]LIC-NH2
modifications: linker 7-11 via Pyridine(2,6-diCH2)
SMILES: CC[C@H](C)[C@@H]1NC(=O)[C@H](CC(C)C)NC(=O)C2(CCOCC2)NC(=O)[C@@H](NC(=O)[C@@H](CC(C)C)NC(=O)[C@H](CCC(=O)O)NC(=O)[C@@H]2C[C@@H](O)CN2C(=O)[C@H](Cc2c[nH]c3ccc(Br)cc23)NC(=O)[C@H](Cc2c[nH]c3ccccc23)NC(=O)[C@H](CCO)NC(C)=O)CSCc2cccc(n2)CSC[C@@H](C(N)=O)NC1=O
In the case of B4, the pKD in test [1] is greater than 9 pkd. Besides, the pIC50 in test [2] is greater than 8 pic50. Also, the t1/2 in test [3] is greater than 15 min.

B5: AGLU-Glutar-Asp-Trp-5Clw-Hyp-Glu-leu-[Cys(2Lut)-Apc(DOTA)-Leu-Ile-AET] (peptide)
peptide: {AGLU-Glutaryl}-DW[Trp(5-Cl)][Hyp]E[dL]C[Api](DOTA)LI[Cysteamide]
modifications: thioether (positions not given here) via Pyridine(2,6-diCH2); not fully specified (bridges); printed as AGLU-Glutar-Asp-Trp-5Clw-Hyp-Glu-leu-[Cys(2Lut)-Apc(DOTA)-Leu-Ile-AET]
On to B5, for which the pKD in test [1] was greater than 9 pkd. In addition, the pIC50 in test [2] was greater than 8 pic50. In test [3], the t1/2 was greater than 15 min.

B6: AGLU-Glutar-Asp-Trp-5Clw-Tap-Glu-leu-[Cys(2Lut)-Apc(GaDOTA)-Leu-Ile-Cys]-APAc-glu(AGLU)-NH2 (peptide)
peptide: {AGLU-Glutaryl}-DW[Trp(5-Cl)][Pro(trans-4-NH2)]E[dL]C[Api](DOTA(Ga))LIC-{APAc-dE(AGLU)-NH2}
modifications: linker 7-11 via Pyridine(2,6-diCH2)
For the molecule B6, the pKD in test [1] was greater than 9 pkd. The same molecule returned a pIC50 in test [2] greater than 8 pic50. In test [3], this molecule returned a t1/2 greater than 15 min.

B7: Ac-Ser-Trp-5Clw-Hyp-Glu-leu-[Cys(2Lut)-Thp-Leu-Ile-Cys]-NH2 (peptide)
peptide: Ac-SW[Trp(5-Cl)][Hyp]E[dL]C[Thp]LIC-NH2
modifications: linker 7-11 via Pyridine(2,6-diCH2)
SMILES: CC[C@H](C)[C@@H]1NC(=O)[C@H](CC(C)C)NC(=O)C2(CCOCC2)NC(=O)[C@@H](NC(=O)[C@@H](CC(C)C)NC(=O)[C@H](CCC(=O)O)NC(=O)[C@@H]2C[C@@H](O)CN2C(=O)[C@H](Cc2c[nH]c3ccc(Cl)cc23)NC(=O)[C@H](Cc2c[nH]c3ccccc23)NC(=O)[C@H](CO)NC(C)=O)CSCc2cccc(n2)CSC[C@@H](C(N)=O)NC1=O
Molecule B7 displayed a pKD in test [1] greater than 9 pkd. The molecule further registered a pIC50 in test [2] greater than 8 pic50. This molecule also registered a t1/2 in test [3] greater than 15 min.

B8: DOTA-glu(AGLU)-APAc-Asp-Trp-5Clw-Hyp-Glu-leu-[Cys(2Lut)-Thp-Leu-Ile-Cys]-APAc-glu(AGLU)-NH2 (peptide)
peptide: {DOTA-dE(AGLU)-APAc}-DW[Trp(5-Cl)][Hyp]E[dL]C[Thp]LIC-{APAc-dE(AGLU)-NH2}
modifications: linker 7-11 via Pyridine(2,6-diCH2)
B8: the pKD in test [1] was greater than 9 pkd. Also, the pIC50 in test [2] was greater than 8 pic50. In test [3], the t1/2 is greater than 15 min.

B9: AGLU-Glutar-Asp-Trp-5Clw-Tap-Glu-leu-[Cys(2Lut)-Apc(LuDOTA)-Leu-Ile-Cys]-APAc-glu(AGLU)-NH2 (peptide)
peptide: {AGLU-Glutaryl}-DW[Trp(5-Cl)][Pro(trans-4-NH2)]E[dL]C[Api](DOTA(Lu))LIC-{APAc-dE(AGLU)-NH2}
modifications: linker 7-11 via Pyridine(2,6-diCH2)
In test [1], B9 returned a pKD greater than 9 pkd. In test [2], this molecule displayed a pIC50 greater than 8 pic50. Also, in test [3], the t1/2 was greater than 15 min.

B10: AGLU-Glutar-Asp-Trp-5Clw-Hyp-Glu-leu-[Cys(2Lut)-Thp-Leu-Ile-Cys]-APAc-glu(AGLU)-Lys(DOTA)-NH2 (peptide)
peptide: {AGLU-Glutaryl}-DW[Trp(5-Cl)][Hyp]E[dL]C[Thp]LIC-{APAc-dE(AGLU)-K(DOTA)-NH2}
modifications: linker 7-11 via Pyridine(2,6-diCH2)
In turn, B10 came in with a pKD in test [1] greater than 9 pkd. For the same molecule, in test [2], the pIC50 is greater than 8 pic50. The molecule also yielded a t1/2 in test [3] greater than 15 min.

B11: HO-Succinyl-Trp-5Clw-Hyp-Glu-leu-[Cys(2Lut)-Thp-Leu-Ile-Cys]-APAc-glu(AGLU)-Lys(DOTA)-NH2 (peptide)
peptide: Suc-W[Trp(5-Cl)][Hyp]E[dL]C[Thp]LIC-{APAc-dGlu(AGLU)-Lys(DOTA)-NH2}
modifications: linker 6-10 via 2Lut; reading uncertain; also: printed as HO-Succinyl-Trp-5Clw-Hyp-Glu-leu-[Cys(2Lut)-Thp-Leu-Ile-Cys]-APAc-glu(AGLU)-Lys(DOTA)-NH2
With B11, the pKD in test [1] was greater than 9 pkd. The pIC50 in test [2] is greater than 8 pic50. Further, the t1/2 in test [3] is greater than 15 min.

B12: AGLU-Glutar-Asp-Trp-5Clw-Tap-Glu-leu-[Cys(2Lut)-Apc(DOTA)-Leu-Ile-Cys]-APAc-glu(AGLU)-NH2 (peptide)
peptide: {AGLU-Glutaryl}-DW[Trp(5-Cl)][Pro(trans-4-NH2)]E[dL]C[Api](DOTA)LIC-{APAc-dE(AGLU)-NH2}
modifications: linker 7-11 via Pyridine(2,6-diCH2)
On to B12, for which the pKD in test [1] was greater than 9 pkd. The molecule further gave a pIC50 in test [2] greater than 8 pic50. In test [3], this molecule came in with a t1/2 greater than 15 min.

B13: AGLU-Glutar-Asp-Trp-5Clw-Hyp-Glu-leu-[Cys(2Lut)-Apc(LuDOTA)-Leu-Ile-Cys]-APAc-glu(AGLU)-NH2 (peptide)
peptide: {AGLU-Glutaryl}-DW[Trp(5-Cl)][Hyp]E[dL]C[Api](DOTA(Lu))LIC-{APAc-dE(AGLU)-NH2}
modifications: linker 7-11 via Pyridine(2,6-diCH2)
Regarding B13, the pKD in test [1] was greater than 9 pkd. Also, the pIC50 in test [2] is greater than 8 pic50. Also, the t1/2 in test [3] is greater than 15 min.

B14: HO-Succinyl-Trp-5Clw-Tap-Glu-leu-[Cys(2Lut)-Apc-Leu-Ile-Cys]-APAc-glu(AGLU)-Lys(DOTA)-NH2 (peptide)
peptide: W[Trp(5-Cl)][Pro(trans-4-NH2)]E[dL]C[Api]LIC-{APAc-dE(AGLU)-K(DOTA)-NH2}
modifications: linker 6-10 via 2Lut; not fully specified (N-terminus); printed as HO-Succinyl-Trp-5Clw-Tap-Glu-leu-[Cys(2Lut)-Apc-Leu-Ile-Cys]-APAc-glu(AGLU)-Lys(DOTA)-NH2
On to B14, for which the pKD in test [1] is greater than 9 pkd. The molecule further registered a pIC50 in test [2] greater than 8 pic50. In addition, the t1/2 in test [3] is greater than 15 min.

B15: Ac-Asp-Trp-5Clw-Hyp-Hse-leu-[Cys(2Lut)-Thp-Leu-Ile-Cys]-NH2 (peptide)
peptide: Ac-DW[Trp(5-Cl)][Hyp][hSer][dL]C[Thp]LIC-NH2
modifications: linker 7-11 via Pyridine(2,6-diCH2)
SMILES: CC[C@H](C)[C@@H]1NC(=O)[C@H](CC(C)C)NC(=O)C2(CCOCC2)NC(=O)[C@@H](NC(=O)[C@@H](CC(C)C)NC(=O)[C@H](CCO)NC(=O)[C@@H]2C[C@@H](O)CN2C(=O)[C@H](Cc2c[nH]c3ccc(Cl)cc23)NC(=O)[C@H](Cc2c[nH]c3ccccc23)NC(=O)[C@H](CC(=O)O)NC(C)=O)CSCc2cccc(n2)CSC[C@@H](C(N)=O)NC1=O
Molecule B15 had a pKD in test [1] greater than 9 pkd. The molecule also yielded a pIC50 in test [2] greater than 8 pic50. In test [3], the t1/2 was greater than 15 min.

B16: AGLU-Glutar-Asp-Trp-5Clw-Hyp-Glu-leu-[Cys(2Lut)-Apc(DOTA)-Leu-Ile-Cys]-APAc-glu(AGLU)-NH2 (peptide)
peptide: DWXXEXCXLIC
modifications: AGLU-Glutar; 5Clw; Hyp; D-leu; Apc(DOTA); 2Lut bridge Cys-Cys; APAc; D-glu(AGLU); C-term NH2
In test [1], B16 gave a pKD greater than 9 pkd. Further, in test [2], the pIC50 is greater than 8 pic50. This molecule also yielded a t1/2 in test [3] greater than 15 min.

The values above are taken from patent publication US20250296971A1, “GASTRIC INHIBITORY PEPTIDE RECEPTOR LIGANDS” (priority 2021, published 2025).
